Patent publication US20260071233A1

Biological target: Recombinant rat IFN-γ (rat) (UniProt P01581)
Sequence of UniProt P01581 (P01581 23-156 limits assumed): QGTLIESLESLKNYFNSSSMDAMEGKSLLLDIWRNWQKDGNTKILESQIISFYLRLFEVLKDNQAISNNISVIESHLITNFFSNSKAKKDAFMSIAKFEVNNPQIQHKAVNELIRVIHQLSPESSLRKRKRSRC

Recombinant B8R protein
percent neutralization: > 50%
